How the values were obtained:
[1] = biological target: zebrafish (Danio rerio) carbonic anhydrase VI-pentraxin (CA VI–PTX), recombinant (zebrafish (Danio rerio)); test: SEC + other: static and dynamic light scattering (LC-SLS-DLS); 50 ug protein injected on Superdex 200 5/150 in 50 mM NaH3PO4, 500 mM NaCl pH 8, 0.1 ml/min, 20 °C; MW from standard proteins (SEC) and from light-scattering intensity calibrated on monomeric BSA (SLS); Rh from DLS
[2] = biological target: the molecule itself; test: not stated; unpublished data, preliminary result; protein in solution

stoichiometry N [1] | Molecule | stoichiometry N [2]
5 | zebrafish (Danio rerio) carbonic anhydrase VI-pentraxin (CA VI–PTX), recombinant (enzyme) | –
– | human carbonic anhydrase VI (CA VI) (enzyme, UniProt P23280-1 18-308, looked up, carbonic anhydrase VI, human; Only an unpublished preliminary result is told (A. Yrjänäinen, 2017); also called human CA VI; gustin) QHVSDWTYSEGALDEAHWPQHYPACGGQRQSPINLQRTKVRYNPSLKGLNMTGYETQAGEFPMVNNGHTVQISLPSTMRMTVADGTVYIAQQMHFHWGGASSEISGSEHTVDGIRHVIEIHIVHYNSKYKSYDIAQDAPDGLAVLAAFVEVKNYPENTYYSNFISHLANIKYPGQRTTLTGLDVQDMLPRNLQHYYTYHGSLTTPPCTENVHWFVLADFVKLSRTQVWKLENSLLDHRNKTIHNDYRRTQPLNHRVVESNFPNQEYTLGSEFQFYLHKIEEILDYLRRALN | 2
